{"source": "patent US20170035877A1", "about": "(published 2017)", "binders": {"B1": {"name": "16055 SOSIP.663 trimer, negatively selected (flow-through of the GE136 column) (other)", "chain 1": "not shown", "chain 2": "AVGLGAVIFGFLGAAGSTMGAASITLTVQARQLLSGIVQQQSNLLKAPEAQQHLLQLTVWGIKQLQTRVLAIERYLKDQQLLGIWGCSGKLICCTAVPWNSSWSNKSHDEIWGNMTWMQWDREISNYTNTIYRLLEDSQNQQEQNEKDLLAL"}}, "target": "soluble four-domain CD4 (UniProt P01730 26-390)", "assay": "ITC"}
{"binder": "B1", "values": [{"measurement": "Kd", "result": 6, "unit": "nM"}]}
